In article PMC6454087 (Frontiers in Immunology, 2019):

B1: mouse histone H1a (natural protein, UniProt P43275 1-213, looked up)
chain: MSETAPVAQAASTATEKPAAAKKTKKPAKAAAPRKKPAGPSVSELIVQAVSSSKERSGVSLAALKKSLAAAGYDVEKNNSRIKLGLKSLVNKGTLVQTKGTGAAGSFKLNKKAESKAITTKVSVKAKASGAAKKPKKTAGAAAKKTVKTPKKPKKPAVSKKTSKSPKKPKVVKAKKVAKSPAKAKAVKPKASKAKVTKPKTPAKPKKAAPKKK
notes: mouse histone H1a (H1.1); source: bought: Lifespan Biosciences
B2: mouse WT sNASP (somatic nuclear autoantigenic sperm protein), B6 allele (natural protein)
chain: MATESTAAAAIAAELVSADKIEDAPAPSTSADKMESLDVDSEAKKLLGLGQKHLVMGDIPAAVNAFQEAASLLGKKYGETANECGEAFFFYGKSLLELARMENGVLGNALEGVHVEEEEGEKTEDESLVENNDNVDETEGSEEEDRENDKAEETPNESVLEKKSLQENEEEEIGNLELAWDMLDLAKIIFKRQETKEAQLYAAQAHLKLGEVSVESENYIQAVEEFQACLSLQEQYLEAHDRLLAETHYQLGLAYGYNSQYDEAVAQFGKSIDVIEKRMAVLHEQMKEAEGSFTEYEKEIEELKELLPEIREKIEDAKESQRSGNVAELALKATLVESSTSGFTPSGAGASVSMIASRKPTDGASSSNCVTDISHLVRKKRKPEEESPRKDDAKKAKQEPEVNGGSGDAVSSGKEVSENMEAEAENQAESQTAEGTVESAATIKSTAC
modifications: Somatic isoform of 448 aa = 773-aa tNASP entry lacking 325 residues (internal testis-specific exon). Junction 137/463 set by homology to human sNASP and the printed length, not printed in the paper. …

Experiments:
[1] = target: B2; assay: BLI; Octet K2, 30 C; sNASP WT or variant immobilised on aminopropylsilane (APS) biosensors, histones in assay buffer at various concentrations (62.5 to 1,000 nM shown for H4), association 240 s; n = 4; conditions: both partners purified
mouse histone H4 = mouse histone H4 (mouse, UniProt P62806 1-103); assay: as above; conditions: both partners purified

Kd [1] [µM] | kon [1] [M⁻¹ s⁻¹] | Kd (mouse histone H4) [µM] | kon (mouse histone H4) [M⁻¹ s⁻¹] | Binder
0.387 | 10100 |  |  | B1
 |  | 0.0407 | 1990 | B2
